From patent US20220056131A1 (MacroGenics, published 2022)
Where a chain is given by its changes, count along the chain named. Names and notes keep the numbering of the source.

How the values were obtained:
[1] = target: soluble human CD3 (extracellular domain of human CD3) (human); experiment: BIACORE SPR, capture with anti-EK antibodies, bivalent fit
[2] = target: T1, soluble cynomolgus monkey CD3 (cynomolgus monkey); experiment: as above
T1 chain: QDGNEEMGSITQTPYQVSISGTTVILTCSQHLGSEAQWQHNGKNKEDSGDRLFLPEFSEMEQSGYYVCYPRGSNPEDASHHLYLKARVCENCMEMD

[3] = target: soluble human CD3 (extracellular domain of human CD3) (human); experiment: capture ELISA, plate coated with 1 µg/ml shCD3, OD450
[4] = target: soluble human CD3 (extracellular domain of human CD3) (human); experiment: capture ELISA, plate coated with 0.5 µg/ml shCD3, OD450
[5] = target: soluble human CD3 (extracellular domain of human CD3) (human); experiment: capture ELISA, plate coated with 1 µg/ml soluble human CD3, OD450
[6] = target: T1, soluble cynomolgus monkey CD3; experiment: capture ELISA, plate coated with 1 µg/ml soluble cynomolgus monkey CD3, OD450
[7] = target: T1, soluble cynomolgus monkey CD3; experiment: bispecific binding ELISA with soluble cynomolgus CD3 and soluble human B7H3 (sheet title 'sCynCD3-shB7H3 Bispecific Binding Elisa'); format not described, OD450
[8] = target: T2, epidermal growth factor receptor (EGFR) on A498 kidney cancer cells or A431 epidermoid carcinoma cells (UniProt P00533 25-1210, limits assumed); experiment: flow cytometry, binding to A498 kidney cancer cells, MFI
T2 construct: whole, on cells

soluble human CD3 (extracellular domain of human CD3) (human), sequence (P07766 23-126, chain 1 of 2): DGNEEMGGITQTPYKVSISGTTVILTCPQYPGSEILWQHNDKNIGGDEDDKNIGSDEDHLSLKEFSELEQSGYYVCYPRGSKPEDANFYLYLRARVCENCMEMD
soluble human CD3 (extracellular domain of human CD3) (human), sequence (P04234 22-105, chain 2 of 2, further chain): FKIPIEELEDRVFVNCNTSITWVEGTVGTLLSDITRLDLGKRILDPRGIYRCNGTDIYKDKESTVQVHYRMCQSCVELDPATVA

B1: chimeric variant of mAb2 antibody (ch-mAb2) (antibody, V domains shown)
VH: EVKLLESGGGLVQPKGSLKLSCAASGFTFNTYAMNWVRQAPGKGLEWVARIRSKYNNYATYYADSVKDRFTISRDDSQSILYLQMNNLKTEDTAMYYCVRHGNFGNSYVSWFAYWGQGTLVTVSA
VL: QAVVTQESALTTSPGETVTLTCRSSTGAVTTSNYANWVQEKPDHLFTGLIGGTNKRAPGVPARFSGSLIGDKAALTITGAQTEDEAIYFCALWYSNLWVFGGGTKLTVLG
notes: also called chimeric mAb2; mAb2 chimeric antibody
For B1, the Kd [1] was 14.7 nM, the kon [1] was 170000 M⁻¹ s⁻¹ and the Kd [2] was 14.4 nM. The kon [2] was 160000 M⁻¹ s⁻¹, the EC50 (read off the curve) [3] was 0.03 µg/mL and the EC50 (read off the curve) [4] was 0.03 µg/mL. The EC50 (read off the curve) [5] was 0.03 µg/mL and the “EC50 (read off the curve)” value [6] was about 0.03 µg/mL.

B2: h-mAb2VH-8 HC / ch-mAb2 LC (antibody, V domains shown)
VH: B1 VH with K3Q, L5V, K15G, K19R, Q78K, S79N, I80S, N87S, M95V, A125S
VL: B1 VL
notes: also called ch-mAb2 LC / h-mAb2VH-8 HC
In the case of B2, the EC50 (read off the curve) [5] is reported as 0.03 µg/mL and the “EC50 (read off the curve)” value [6] is reported as about 0.03 µg/mL.

B3: antibody having an h-mAb2 VL-6 light chain and the heavy chain of the mAb2 chimeric antibody (antibody, V domains shown)
VH: B1 VH
VL: QAVVTQEPSLTVSPGGTVTLTCRSSTGAVTTSNYANWVQQKPGQAPRGLIGGTNKRAPWTPARFSGSLLGGKAALTITGAQAEDEADYYCALWYSNLWVFGGGTKLTVLG
notes: also called h-mAb2 VL-6 light chain antibody (Kabat F36V and T46G)
With B3 the EC50 (read off the curve) [4] was 0.04 µg/mL, the EC50 (read off the curve) [5] was 0.03 µg/mL and the “EC50 (read off the curve)” value [6] was about 0.03 µg/mL.

B4: antibody having an h-mAb2 VL-8 light chain and the heavy chain of the mAb2 chimeric antibody (antibody, V domains shown)
VH: B1 VH
VL: B3 VL with Q40E
In the case of B4, the EC50 (read off the curve) [3] is reported as 0.03 µg/mL and the EC50 (read off the curve) [4] is reported as 0.04 µg/mL.

B5: humanized mAb2 (h-mAb2) (antibody, V domains shown)
VH: B1 VH with K3Q, L5V, K15G, K19R, Q78K, S79N, I80S, N87S, M95V, A125S
VL: B3 VL
notes: also called humanized variant of mAb2
B5 was tested, and the Kd [1] was 20 nM, the kon [1] was 190000 M⁻¹ s⁻¹ and the Kd [2] was 24.1 nM. For the same binder, the kon [2] was 170000 M⁻¹ s⁻¹, the EC50 (read off the curve) [5] was 0.03 µg/mL and the “EC50 (read off the curve)” value [6] was about 0.03 µg/mL.

B6: B7-H3-2-h-mAb2 DART diabody (bispecific antibody)
chain 1: DIQLTQSPSFLSASVGDRVTITCKASQNVDTNVAWYQQKPGKAPKALIYSASYRYSGVPSRFSGSGSGTDFTLTISSLQPEDFATYYCQQYNNYPFTFGQGTKLEIKGGGGSGGGGEVQLVESGGGLVQPGGSLRLSCAASGFTFNTYAMNWVRQAPGKGLEWVARIRSKYNNYATYYADSVKDRFTISRDDSKNSLYLQMNSLKTEDTAVYYCVRHGNFGNSYVSWFAYWGQGTLVTVSSGGCGGGEVAALEKEVAALEKEVAALEKEVAALEK
chain 2: QAVVTQEPSLTVSPGGTVTLTCRSSTGAVTTSNYANWVQQKPGQAPRGLIGGTNKRAPWTPARFSGSLLGGKAALTITGAQAEDEADYYCALWYSNLWVFGGGTKLTVLGGGGSGGGGEVQLVESGGGLVQPGGSLRLSCAASGFTFSSFGMHWVRQAPGKGLEWVAYISSDSSAIYYADTVKGRFTISRDNAKNSLYLQMNSLRDEDTAVYYCGRGRENIYYGSRLDYWGQGTTVTVSSGGCGGGKVAALKEKVAALKEKVAALKEKVAALKE
notes: Two-chain diabody, hBRCA84D (anti-B7-H3) x h-mAb2
In the case of B6, the “EC50 (read off the curve)” value [7] is reported as about 0.03 µg/mL.

B7: 4420 x huXR32 (bispecific antibody)
4420VL-hXR32VH-E coil: DVVMTQTPFSLPVSLGDQASISCRSSQSLVHSNGNTYLRWYLQKPGQSPKVLIYKVSNRFSGVPDRFSGSGSGTDFTLKISRVEAEDLGVYFCSQSTHVPWTFGGGTKLEIKGGGSGGGGEVQLVESGGGLVQPGGSLRLSCAASGFTFNTYAMNWVRQAPGKGLEWVARIRSKYNNYATYYADSVKDRFTISRDDSKNSLYLQMNSLKTEDTAVYYCVRHGNFGNSYVSWFAYWGQGTLVTVSSGGCGGGEVAALEKEVAALEKEVAALEKEVAALEK
hXR32VL-4420VH-K coil: QAVVTQEPSLTVSPGGTVTLTCRSSTGAVTTSNYANWVQQKPGQAPRGLIGGTNKRAPWTPARFSGSLLGGKAALTITGAQAEDEADYYCALWYSNLWVFGGGTKLTVLGGGGSGGGGEVKLDETGGGLVQPGRPMKLSCVASGFTFSDYWMNWVRQSPEKGLEWVAQIRNKPYNYETYYSDSVKGRFTISRDDSKSSVYLQMNNLRVEDMGIYYCTGSYYGMDYWGQGTSVTVSSGGCGGGKVAALKEKVAALKEKVAALKEKVAALKE
B7: no binding [8].
